Laboratory results reported in paper doi:10.1101/2023.08.09.551721 (bioRxiv, 2023).

Target: histone H4 (in the nucleosome) (Xenopus laevis, UniProt P62799)
Assay: cryo-EM structure

B1: DDM1-HELLS chimeric protein (DDM1^HELLS) (enzyme)
chain: MVSLRSRKVIPASEMVSDGKTEKDASGDSPTSVLNEEENCEEKSVTVVEEEILLAKNGDSSLISEAMAQEEEQLLKLREDEEKANNAGSAVAPNLNETQFTKLDELLTQTQLYSEFLLEKMEDITINGIESESQKAEPEKTGRGRKRKAASQYNNTKAKRAVAAMISRSKEDGETINSDLTEEETVIKLQNELCPLLTGGQLKSYQLKGVKWLISLWQNGLNGILADQMGLGKTIQTIGFLSHLKGNGLDGPYLVIAPLSTLSNWFNEIARFTPSINAIIYHGDKNQRDELRRKHMPKTVGPKFPIVITSYEVAMNDAKRILRHYPWKYVVIDEGHRLKNHKCKLLRELKHLKMDNKLLLTGTPLQNNLSELWSLLNFILPDIFTSHDEFESWFDFSEKNKNEATKEEEEKRRAQVVSKLHGILRPFILRRMKCDVELSLPRKKEIIMYATMTDHQKKFQEHLVNNTLEAHLGENAIRGIELSPTGRPKRRTRKSINYSKIDDFPNELEKLISQIQPEVDRERAVVEVNIPVEQGWKGKLNNLVIQLRKNCNHPDLLQGQIDGSYLYPPVEEIVGQCGKFRLLERLLVRLFANNHKVLIFSQWTKLLDIMDYYFSEKGFEVCRIDGSVKLDERRRQIKDFSDEKSSCSIFLLSTRAGGLGINLTAADTCILYDSDWNPQMDLQAMDRCHRIGQTKPVHVYRLSTAQSIETRVLKRAYSKLKLEHVVIGQGQFHQERAKSSTPLEEEDILALLKEDETAEDKLIQTDISDADLDRLLDRSDLTITAPGETQAAEAFPVKGPGWEVVLPSSGGMLSSLNS
binding result: binds
